Measured values reported in publication PMC11183071 (Communications Biology, 2024).

What was measured:
[1] = target: C-terminal domain of Clostridium perfringens enterotoxin (cCpE), tagless (Clostridium perfringens, UniProt P01558)
[2] = target: T1, hsCLDN-4/cCpE complex (tagless proteins) (Homo sapiens CLDN4; Clostridium …)
T1 chain 1: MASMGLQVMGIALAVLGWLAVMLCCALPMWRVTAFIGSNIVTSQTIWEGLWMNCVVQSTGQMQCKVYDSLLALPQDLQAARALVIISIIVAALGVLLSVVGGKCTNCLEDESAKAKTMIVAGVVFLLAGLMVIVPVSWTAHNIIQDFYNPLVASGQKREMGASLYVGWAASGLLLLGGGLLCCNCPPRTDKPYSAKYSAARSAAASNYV
T1 chain 2: not shown

[3] = target: T2, Clostridium perfringens enterotoxin with C-terminal decahistidine tag (CpE-His10) (Clostridium perfringens, UniProt P01558 1-319); assay: BLI; details: both partners purified
T2 sequence: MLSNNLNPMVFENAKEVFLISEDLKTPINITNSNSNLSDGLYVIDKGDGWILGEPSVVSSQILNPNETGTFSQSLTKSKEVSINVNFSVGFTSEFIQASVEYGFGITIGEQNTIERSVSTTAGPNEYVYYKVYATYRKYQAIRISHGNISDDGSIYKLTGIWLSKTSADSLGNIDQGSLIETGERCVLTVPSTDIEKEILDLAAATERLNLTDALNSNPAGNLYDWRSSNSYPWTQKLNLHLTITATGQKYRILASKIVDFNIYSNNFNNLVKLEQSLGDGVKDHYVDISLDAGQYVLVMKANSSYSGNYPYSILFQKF

[4] = target: T3, pre-formed hsCLDN-3-Biotin/CpE-His10 complex (Homo sapiens CLDN3; Clostridium …, UniProt O15551;P01558); assay: BLI; details: both partners purified
T3 construct: source: pre-formed from the purified proteins (same method as the cCpE complexes)

[5] = target: T4, C-terminal domain of Clostridium perfringens enterotoxin with decahistidine tag (cCpE-His10) (Clostridium perfringens, UniProt P01558); assay: BLI; details: both partners purified
T4 construct: source: insect cells, purified (NiNTA, eluted with imidazole); not shown: His10, C-terminal, kept

[6] = target: T5, pre-formed non-detergent hsCLDN-4/cCpE-His10 complex (hsCLDN-4 in amphipol A8-35 or in nanodiscs) (Homo sapiens CLDN4; Clostridium …); assay: BLI; details: both partners purified
T5 chain 1: T1 chain 1
T5 chain 2: not shown

B1: COP-3 (antibody, V domains shown)
VH: EVQLVESGGGLVQPGGSLRLSCAASGFNFYSSSIHWVRQAPGKGLEWVAYISSYSGYTYYADSVKGRFTISADTSKNTAYLQMNSLRAEDTAVYYCARGYGYFDYNFSVGYALDYWGQGTLVTVSS
VL: DIQMTQSPSSLSASVGDRVTITCRASQSVSSAVAWYQQKPGKAPKLLIYSASSLYSGVPSRFSGSRSGTDFTLTISSLQPEDFATYYCQQSHPWYYPITFGQGTKVEIK
Question: Which results are given for B1?
Answer: binding result [1]: binds; binding result [2]: binds

B2: mouse claudin-4, biotinylated (mmCLDN-4-Biotin) (natural protein)
chain: MASMGLQVLGISLAVLGWLGIILSCALPMWRVTAFIGSNIVTAQTSWEGLWMNCVVQSTGQMQCKMYDSMLALPQDLQAARALMVISIIVGALGMLLSVVGGKCTNCMEDETVKAKIMITAGAVFIVASMLIMVPVSWTAHNVIRDFYNPMVASGQKREMGASLYVGWAASGLLLLGGGLLCCSCPPRSNDKPYSAKYSAARSVPASNYV
modifications: biotin (NHS-PEG4-Biotin) on the N-terminal amine
Question: For B2, which Kd [3] is on record?
Answer: 17.9 ± 0.2 nM

B3: human claudin-3, biotinylated (hsCLDN-3-Biotin) (natural protein)
chain: MSMGLEITGTALAVLGWLGTIVCCALPMWRVSAFIGSNIITSQNIWEGLWMNCVVQSTGQMQCKVYDSLLALPQDLQAARALIVVAILLAAFGLLVALVGAQCTNCVQDDTAKAKITIVAGVLFLLAALLTLVPVSWSANTIIRDFYNPVVPEAQKREMGAGLYVGWAAAALQLLGGALLCCSCPPREKKYTATKVVYSAPRSTGPGASLGTGYDRKDYV
modifications: biotin (NHS-PEG4-Biotin) on the N-terminal amine
Question: B3 was tested. Which Kd [3] did it give?
Answer: 77.6 ± 0.9 nM

B4: human claudin-4, biotinylated (hsCLDN-4-Biotin) (natural protein)
chain: T1 chain 1
modifications: biotin (NHS-PEG4-Biotin) on the N-terminal amine
Question: For B4, which Kd [3] is on record?
Answer: 7.3 ± 0.2 nM

B5: mouse claudin-3, biotinylated (mmCLDN-3-Biotin) (natural protein)
chain: MSMGLEITGTSLAVLGWLCTIVCCALPMWRVSAFIGSSIITAQITWEGLWMNCVVQSTGQMQCKMYDSLLALPQDLQAARALIVVSILLAAFGLLVALVGAQCTNCVQDETAKAKITIVAGVLFLLAALLTLVPVSWSANTIIRDFYNPLVPEAQKREMGAGLYVGWAAAALQLLGGALLCCSCPPRDKYAPTKILYSAPRSTGPGTGTGTAYDRKDYV
modifications: biotin (NHS-PEG4-Biotin) on the N-terminal amine
Question: With B5 as the binder, how does the Kd [3] read?
Answer: 16.1 ± 0.2 nM

B6: human claudin-9, biotinylated (hsCLDN-9-Biotin) (natural protein)
chain: MASTGLELLGMTLAVLGWLGTLVSCALPLWKVTAFIGNSIVVAQVVWEGLWMSCVVQSTGQMQCKVYDSLLALPQDLQAARALCVIALLLALLGLLVAITGAQCTTCVEDEGAKARIVLTAGVILLLAGILVLIPVCWTAHAIIQDFYNPLVAEALKRELGASLYLGWAAAALLMLGGGLLCCTCPPPQVERPRGPRLGYSIPSRSGASGLDKRDYV
modifications: biotin (NHS-PEG4-Biotin) on the N-terminal amine
Question: How did the Kd [3] turn out when B6 was run?
Answer: 10.5 ± 0.2 nM

B7: COP-1 (CpE Obstructing Protein 1), synthetic antibody fragment (Fab, V domains shown)
VH: EVQLVESGGGLVQPGGSLRLSCAASGFNFSSSYIHWVRQAPGKGLEWVASISSSSGSTSYADSVKGRFTISADTSKNTAYLQMNSLRAEDTAVYYCARWFHPWWWWEYLFRGAIDYWGQGTLVTVSS
VL: DIQMTQSPSSLSASVGDRVTITCRASQSVSSAVAWYQQKPGKAPKLLIYSASSLYSGVPSRFSGSRSGTDFTLTISSLQPEDFATYYCQQSSSSLITFGQGTKVEIK
notes: also called sFab
Question: Does B7 bind [4]?
Answer: no binding (tested: 250 nM COP-1)

Question: Does B7 bind [5]?
Answer: no binding (tested: 0–750 nM COP-1)

Question: And the Kd [6]?
Answer: < 100 nM
